B1: NF-kappa-B inhibitor alpha (Homo sapiens), P25963 (parent)
chain: MFQAAERPQEWAMEGPRDGLKKERLLDDRHDSGLDSMKDEEYEQMVKELQEIRLEPQEVPRGSEPWKQQLTEDGDSFLHLAIIHEEKALTMEVIRQVKGDLAFLNFQNNLQQTPLHLAVITNQPEIAEALLGAGCDPELRDFRGNTPLHLACEQGCLASVGVLTQSCTTPHLHSILKATNYNGHTCLHLASIHGYLGIVELLVSLGADVNAQEPCNGRTALHLAVDLQNPDLVSLLLKCGADVNRVTYQGYSPYQLTWGRPSTRIQQQLGQLTLENLQMLPESEDEESYDTESEFTEFTEDELPYDDCVFGGQRLTL
partner: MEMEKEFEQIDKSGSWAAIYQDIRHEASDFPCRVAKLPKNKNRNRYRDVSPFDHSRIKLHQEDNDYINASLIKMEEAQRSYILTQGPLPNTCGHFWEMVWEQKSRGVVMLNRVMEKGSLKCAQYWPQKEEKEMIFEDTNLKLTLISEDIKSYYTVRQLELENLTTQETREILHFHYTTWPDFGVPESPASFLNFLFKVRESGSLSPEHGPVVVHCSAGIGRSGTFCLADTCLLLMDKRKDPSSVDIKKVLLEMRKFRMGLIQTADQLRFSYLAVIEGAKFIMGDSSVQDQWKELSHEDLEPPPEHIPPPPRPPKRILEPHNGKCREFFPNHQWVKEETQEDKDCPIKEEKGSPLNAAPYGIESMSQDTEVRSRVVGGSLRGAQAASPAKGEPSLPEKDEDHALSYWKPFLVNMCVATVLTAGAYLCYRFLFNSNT

The experiment covers variants of B1. The following applies: with ptn1_human PTPN1, P18031.
As for Y42F, the “effect of a mutation on the interaction” value is given as “disrupting interaction”.

The record behind these values is IntAct's records for PubMed 8940099.
